In FireProtDB (doi:10.1002/prot.1147):
Several values for one entry are separate records, joined by “and”; a condition that tells them apart may be missing. Identical values can stand only once.

B1: Lysozyme C, P61626 (parent)
chain: MKALIVLGLVLLSVTVQGKVFERCELARTLKRLGMDGYRGISLANWMCLAKWESGYNTRATNYNAGDRSTDYGIFQINSRYWCNDGKTPGAVNACHLSCSALLQDNIADAVACAKRVVRDPQGIRAWVAWRNRCQNRDVRQYVQGCGV

Variants of: B1
Details: Homo sapiens; pH 2.2; Thermal; DSC; Gly-HCl 0.05 M; reversible: yes; structure 1LZ1; whole UniProt chain shown

Row | Variant | Tm [°C] | unfolding enthalpy (calorimetric) [kcal/mol]
1 | G145A | 54.6 | 94.2

Same assay, conditions: Homo sapiens; pH 2.6; Thermal; DSC; Gly-HCl 0.05 M; reversible: yes; structure 1LZ1; whole UniProt chain shown

Row | Variant | Tm [°C] | unfolding enthalpy (calorimetric) [kcal/mol]
2 | G145A | 61.6 | 104
3 | G55A | 62.4 | 104
4 | G86A | 62.8 | 103

Same assay, conditions: Homo sapiens; pH 3.16; Thermal; DSC; Gly-HCl 0.05 M; reversible: yes; structure 1LZ1; whole UniProt chain shown

Row | Variant | Tm [°C] | unfolding enthalpy (calorimetric) [kcal/mol]
5 | G145A | 71.1 | 118
6 | G90A | 72.2 | 120

Same assay, conditions: Homo sapiens; pH 2.3; Thermal; DSC; Gly-HCl 0.05 M; reversible: yes; structure 1LZ1; whole UniProt chain shown

Row | Variant | Tm [°C] | unfolding enthalpy (calorimetric) [kcal/mol]
7 | G123A | 56.1 | 90.8

Same assay, conditions: Homo sapiens; pH 2.65; Thermal; DSC; Gly-HCl 0.05 M; reversible: yes; structure 1LZ1; whole UniProt chain shown

Row | Variant | Tm [°C] | unfolding enthalpy (calorimetric) [kcal/mol]
8 | G123A | 61.3 | 97.5

Same assay, conditions: Homo sapiens; pH 2.7; 64.9 °C; Thermal; DSC; Gly-HCl 0.05 M; reversible: yes; structure 1LZ1; whole UniProt chain shown

Row | Variant | ddG of mutation (higher = less stable) [kcal/mol] | heat capacity change of unfolding [kcal/mol/K]
9 | G123A | 0.62 | 1.36
10 | G90A | 0.36 | 1.43
11 | G66A | -0.45 | 1.6
12 | G86A | 0.12 | 1.65
13 | G147A | -0.14 | 1.29
14 | G34A | 1.39 | 1.58
15 | G37A | 1.77 | 1.58

Same assay, conditions: Homo sapiens; pH 2.7; Thermal; DSC; Gly-HCl 0.05 M; reversible: yes; structure 1LZ1; whole UniProt chain shown

Row | Variant | Tm [°C] | change of melting temperature, mutant - wild type (higher = more stable) [°C] | heat capacity change of unfolding [kcal/mol/K] | unfolding enthalpy (calorimetric)
16 | G123A | 62.8 | -2.1 | 1.36 | 103 kcal/mol
17 | G55A | 64 | -0.9 | 1.53 | 108 kcal/mol
18 | G90A | 63.8 | -1.1 | 1.43 | 109 kcal/mol
19 | G66A | 66.4 | 1.5 | 1.6 | 101 kcal/mol
20 | G86A | 64.5 | -0.4 | 1.65 | 108 kcal/mol
21 | G147A | 65.4 | 0.5 | 1.29 | 99.7 kcal/mol
22 | G34A | 60.3 | -4.6 |  | 96.3 kcal/mol and 103 kcal/mol
23 | G37A | 59.4 | -5.5 |  | 102 kcal/mol and 111 kcal/mol
24 | G40A | 57.7 | -7.2 |  | 77 kcal/mol and 88.4 kcal/mol

Same assay, conditions: Homo sapiens; pH 3.2; Thermal; DSC; Gly-HCl 0.05 M; reversible: yes; structure 1LZ1; whole UniProt chain shown

Row | Variant | Tm [°C] | unfolding enthalpy (calorimetric) [kcal/mol]
25 | G123A | 71.8 | 112
26 | G66A | 75.1 | 117

Same assay, conditions: Homo sapiens; pH 2.38; Thermal; DSC; Gly-HCl 0.05 M; reversible: yes; structure 1LZ1; whole UniProt chain shown

Row | Variant | Tm [°C] | unfolding enthalpy (calorimetric) [kcal/mol]
27 | G55A | 58.1 | 97
28 | G90A | 58.2 | 99.9

Same assay, conditions: Homo sapiens; pH 3.18; Thermal; DSC; Gly-HCl 0.05 M; reversible: yes; structure 1LZ1; whole UniProt chain shown

Row | Variant | Tm [°C] | unfolding enthalpy (calorimetric) [kcal/mol]
29 | G55A | 72.4 | 119

Same assay, conditions: Homo sapiens; pH 2.64; Thermal; DSC; Gly-HCl 0.05 M; reversible: yes; structure 1LZ1; whole UniProt chain shown

Row | Variant | Tm [°C] | unfolding enthalpy (calorimetric) [kcal/mol]
30 | G90A | 62.6 | 106

Same assay, conditions: Homo sapiens; pH 2.4; Thermal; DSC; Gly-HCl 0.05 M; reversible: yes; structure 1LZ1; whole UniProt chain shown

Row | Variant | Tm [°C] | unfolding enthalpy (calorimetric) [kcal/mol]
31 | G66A | 61.1 | 94.9

Same assay, conditions: Homo sapiens; pH 2.68; Thermal; DSC; Gly-HCl 0.05 M; reversible: yes; structure 1LZ1; whole UniProt chain shown

Row | Variant | Tm [°C] | unfolding enthalpy (calorimetric) [kcal/mol]
32 | G66A | 66 | 102

Same assay, conditions: Homo sapiens; pH 2.72; Thermal; DSC; Gly-HCl 0.05 M; reversible: yes; structure 1LZ1; whole UniProt chain shown

Row | Variant | Tm [°C] | unfolding enthalpy (calorimetric) [kcal/mol]
33 | G86A | 64.9 | 109

Same assay, conditions: Homo sapiens; pH 3; Thermal; DSC; Gly-HCl 0.05 M; reversible: yes; structure 1LZ1; whole UniProt chain shown

Row | Variant | Tm [°C] | unfolding enthalpy (calorimetric) [kcal/mol]
34 | G86A | 69.2 | 114

Same assay, conditions: Homo sapiens; pH 2.67; Thermal; DSC; Gly-HCl 0.05 M; reversible: yes; structure 1LZ1; whole UniProt chain shown

Row | Variant | Tm [°C] | unfolding enthalpy (calorimetric) [kcal/mol]
35 | G147A | 64.9 | 99.7

Same assay, conditions: Homo sapiens; pH 2.79; Thermal; DSC; Gly-HCl 0.05 M; reversible: yes; structure 1LZ1; whole UniProt chain shown

Row | Variant | Tm [°C] | unfolding enthalpy (calorimetric) [kcal/mol]
36 | G147A | 67.1 | 102

Same assay, conditions: Homo sapiens; pH 2.8; Thermal; DSC; Gly-HCl 0.05 M; reversible: yes; structure 1LZ1; whole UniProt chain shown

Row | Variant | Tm [°C] | unfolding enthalpy (calorimetric) [kcal/mol]
37 | G147A | 67.2 | 103
